Values quoted from earlier work as cited in paper PMC4459106.

Molecular target: KIM15-31 (HePTP) 15-31 (Homo sapiens) (UniProt P35236)

Kd: 1300 nM
Substance: ppERK2 (from UniProt P63086)
